Like-named read-outs stand apart in the source and are kept apart here.
Assays:
[1] = biological target: human ALK1 protein (Sino Biological, #10066-H08H) (human, UniProt P37023 22-118); experiment: ELISA, coated human ALK1
Experimental: These binders were then tested using an ELISA assay. High binding plates (Corning, 9018) were coated with either 2 μg/ml of human BMPRII protein (Sino Biological, #10551-H08H) or 2 μg/ml of human ALK1 protein (Sino Biological, #10066-H08H) overnight at 4C. The plates were then washed three times with wash buffer (R&D Systems, WA126). […] The plates were then washed three times with wash buffer and DGL antibodies or controls, which were diluted with PBS and 0.1% BSA. The antibodies were incubated for one hour at room temperature and then the plates were washed three times with wash buffer. The plates were then incubated with mouse anti-human IgG Fc secondary—HRP (diluted with PBS/0.1% BSA); 100 ul per well at 2 μg/ml and incubated at room temperature for one hour. The plate was washed three times in wash buffer and then 100 ul TMB (R&D Systems, DY9998B, substrate reagent pack). After the wells turn blue, 50 ul of stop solution (R&D Systems, DY994) was added to each well and the absorbance of the plate was read at 450 nm. results can be found in Table 8.

[2] = biological target: T1, ALK-1/BMPR-2 receptor pair of the PathHunter U2Os dimerization cells (DiscoverX 93-0962C3) (UniProt P37023 22-503; Q13873 27-1038); experiment: cell-based or functional assay
[3] = biological target: T1, ALK-1/BMPR-2 receptor pair of the …; experiment: cell-based or functional assay; remark: listed apart in the source

T1 sequence (P37023 22-503, chain 1 of 2): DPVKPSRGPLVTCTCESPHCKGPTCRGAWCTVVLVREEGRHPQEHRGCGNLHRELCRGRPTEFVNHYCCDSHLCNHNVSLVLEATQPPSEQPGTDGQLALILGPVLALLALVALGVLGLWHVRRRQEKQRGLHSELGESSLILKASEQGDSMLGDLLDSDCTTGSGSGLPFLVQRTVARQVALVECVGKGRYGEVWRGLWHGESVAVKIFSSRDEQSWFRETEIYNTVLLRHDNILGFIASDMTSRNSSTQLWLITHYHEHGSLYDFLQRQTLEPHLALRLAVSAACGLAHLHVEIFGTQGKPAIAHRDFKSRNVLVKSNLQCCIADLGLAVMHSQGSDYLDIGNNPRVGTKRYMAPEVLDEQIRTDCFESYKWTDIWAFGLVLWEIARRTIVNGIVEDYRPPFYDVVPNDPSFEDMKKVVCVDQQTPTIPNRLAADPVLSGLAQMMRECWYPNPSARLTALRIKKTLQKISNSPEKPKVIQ
T1 sequence (Q13873 27-1038, chain 2 of 2): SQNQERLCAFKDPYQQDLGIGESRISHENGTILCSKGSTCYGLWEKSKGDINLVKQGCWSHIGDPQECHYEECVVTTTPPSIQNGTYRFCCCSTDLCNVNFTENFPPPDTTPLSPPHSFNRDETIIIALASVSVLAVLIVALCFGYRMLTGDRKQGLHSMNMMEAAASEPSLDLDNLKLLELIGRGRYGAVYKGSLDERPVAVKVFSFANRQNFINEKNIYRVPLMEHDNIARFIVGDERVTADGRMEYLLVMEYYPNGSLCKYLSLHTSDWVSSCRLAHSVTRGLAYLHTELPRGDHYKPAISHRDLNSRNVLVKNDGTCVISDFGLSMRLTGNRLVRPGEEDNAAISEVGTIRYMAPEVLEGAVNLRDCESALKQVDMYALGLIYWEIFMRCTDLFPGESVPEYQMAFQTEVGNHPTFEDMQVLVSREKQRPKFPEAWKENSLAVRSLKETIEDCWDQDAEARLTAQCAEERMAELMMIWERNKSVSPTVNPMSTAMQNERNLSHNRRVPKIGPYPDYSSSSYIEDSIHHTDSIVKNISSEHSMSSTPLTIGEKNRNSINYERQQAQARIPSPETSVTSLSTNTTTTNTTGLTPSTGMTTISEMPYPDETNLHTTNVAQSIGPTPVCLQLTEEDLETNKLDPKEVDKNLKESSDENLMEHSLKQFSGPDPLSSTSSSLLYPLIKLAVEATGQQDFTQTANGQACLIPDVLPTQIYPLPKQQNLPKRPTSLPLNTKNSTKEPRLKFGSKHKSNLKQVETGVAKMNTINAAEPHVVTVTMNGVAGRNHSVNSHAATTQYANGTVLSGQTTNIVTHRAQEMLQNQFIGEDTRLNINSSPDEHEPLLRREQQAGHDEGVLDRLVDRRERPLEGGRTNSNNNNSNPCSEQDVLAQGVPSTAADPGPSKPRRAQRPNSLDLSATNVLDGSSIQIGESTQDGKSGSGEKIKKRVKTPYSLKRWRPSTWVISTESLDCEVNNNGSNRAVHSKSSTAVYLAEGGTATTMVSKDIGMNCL
Chain of human ALK1 protein (Sino Biological, #10066-H08H) (P37023 22-118 limits assumed): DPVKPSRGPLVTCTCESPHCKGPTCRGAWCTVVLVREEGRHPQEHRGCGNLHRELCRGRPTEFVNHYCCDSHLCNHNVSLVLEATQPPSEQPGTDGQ

Row | Binder | Abs450 1 nM [1] | Abs450 10 nM [1] | Abs450 100 nM [1] | % Emax BMP9 [2] [%] | Emax (RLU) [2] [RLU] | % Emax BMP9 [3] [%] | EC50 [3] [nM] | Emax (RLU) [3] [RLU]
1 | DGL640 (bispecific antibody) chain 1: EVQLLESGGGLVQPGGSLRLSCAASGFTFSDYYMTWIRQAPGKGLEWVSSISGGSTYYADSRKGRFTISRDNSENTLYLQMNSLRAEDTAVYYCARWETSGGYYGSGGLTIWGQGTLVTVSSGGGGSGGGGSGGGGSQSVLTQPPSASGTPGQRVTISCTGSSSNIGAGYDVHWYQQLPGTAPKLLIYRSNQRPSGVPDRFSGSKSGTSASLAISGLRSEDEADYYCSSYAGNYNLVFGGGTKLTVLDKTHTCPPCPAPEAAGAPSVFLFPPKPKDTLMISRTPEVTCVVVDVSHEDPEVKFNWYVDGVEVHNAKTKPREEQYNSTYRVVSVLTVLHQDWLNGKEYKCKVSNKALPAPIEKTISKAKGQPREPQVCTLPPSRDELTKNQVSLSCAVKGFYPSDIAVEWESNGQPENNYKTTPPVLDSDGSFFLVSKLTVDKSRWQQGNVFSCSVMHEALHNHYTQKSLSLSPGWSHPQFEK chain 2: not shown | 0.09 | 0.47 | 1.4 | 83 | 1.53e+06 | – | – | –
2 | DGL642 (bispecific antibody) chain 1: EVQLLESGGGLVQPGGSLRLSCAASGFTFSNAWMNWVRQAPGKGLEWVSSISSSSSYIYYADSVKGRFTISRDNSKNTLYLQMNSLRAEDTAVYYCARSNGSGGSTYPLDLWGQGTLVTVTSSGGGGSGGGGSGGGGSQSVLTQPPSASGTPGQRVTISCSGSRSNIGSNSVHWYQQLPGTAPKLLIYGNSNRPSGVPDRFSGSKSGTSASLAISGLRSEDEADYYCQSYDSSLNDHVVFGGGTKLTVLDKTHTCPPCPAPEAAGAPSVFLFPPKPKDTLMISRTPEVTCVVVDVSHEDPEVKFNWYVDGVEVHNAKTKPREEQYNSTYRVVSVLTVLHQDWLNGKEYKCKVSNKALPAPIEKTISKAKGQPREPQVCTLPPSRDELTKNQVSLSCAVKGFYPSDIAVEWESNGQPENNYKTTPPVLDSDGSFFLVSKLTVDKSRWQQGNVFSCSVMHEALHNHYTQKSLSLSPGWSHPQFEK chain 2: not shown | 0.08 | 0.09 | 0.5 | 14 | 255000 | – | – | –
3 | DGL267 (bispecific antibody) chain 1: EVQLLESGGGLVQPGGSLRLSCAASGFTFSSYAMSWVRQAPGKGLEWVANINQDGSEKNYVDSMRGRFTISRDNSKNTLYLQMNSLRAEDTAVYYCAREFDYWGQGTLVTVTSSGGGGSGGGGSGGGGSQSVLAQPPSASGTPGQRVTISCSGSSSNIGSNYVYWYQQLPGTAPKLLIYGNNKRPSGVPDRFSGSKSGTSASLAISGLRSEDEADYYCAAWDDSLNGRVFGGGTKLTVLGGGGSGGGGSGGGGSGVECPPCPAPPVAGPSVFLFPPKPKDTLMISRTPEVTCVVVDVSHEDPEVQFNWYVDGVEVHNAKTKPREEQFNSTFRVVSVLTVVHQDWLNGKEYKCKVSNKGLPAPIEKTISKTKGQPREPQVYTLPPCREEMTKNQVSLWCLVKGFYPSDIAVEWESNGQPENNYKTTPPMLDSDGSFFLYSKLTVDKSRWQQGNVFSCSVMHEALHNHYTQKSLSLSPG chain 2: EVQLLESGGGLVQPGGSLRLSCAASGFTFSDYYMTWIRQAPGKGLEWVSSISGGSTYYADSRKGRFTISRDNSENTLYLQMNSLRAEDTAVYYCARDFGVAGWFGQYGMDVWGQGTLVTVSSGGGGSGGGGSGGGGSQSVLTQPPSASGTPGQRVTISCTGSSSNIGAGYDVHWYQQLPGTAPKLLIYRSNQRPSGVPDRFSGSKSGTSASLAISGLRSEDEADYYCSSYAGNYNLVFGGGTKLTVLGGGGSGGGGSGGGGSGVECPPCPAPPVAGPSVFLFPPKPKDTLMISRTPEVTCVVVDVSHEDPEVQFNWYVDGVEVHNAKTKPREEQFNSTFRVVSVLTVVHQDWLNGKEYKCKVSNKGLPAPIEKTISKTKGQPREPQVCTLPPSREEMTKNQVSLSCAVKGFYPSDIAVEWESNGQPENNYKTTPPMLDSDGSFFLVSKLTVDKSRWQQGNVFSCSVMHEALHNHYTQKSLSLSPG | – | – | – | – | – | 46 | 0.9 | 1.23e+06

Second part, the binder after the results:

Row | Abs450 1 nM [1] | Abs450 10 nM [1] | Abs450 100 nM [1] | % Emax BMP9 [2] [%] | Emax (RLU) [2] [RLU] | % Emax BMP9 [3] [%] | EC50 [3] [nM] | Emax (RLU) [3] [RLU] | Binder
4 | 0.08 | 0.15 | 0.65 | 43 | 801000 | – | – | – | DGL650 (bispecific antibody) chain 1: EVQLLESGGGLVQPGGSLRLSCAASGFTFSLAWMNWVRQAPGKGLEWVSSISSSTSYIYYADSVKGRFTISRDNSKNTLYLQMNSLRAEDTAVYYCARAVAAGGFFWGLDQWGQGTLVTVTSSGGGGSGGGGSGGGGSQSVLTQPPSASGTPGQRVTISCSGSRSNIGSNSVHWYQQLPGTAPKLLIYGNSNRPSGVPDRFSGSKSGTSASLAISGLRSEDEADYYCQSYDSSLNDHVVFGGGTKLTVLDKTHTCPPCPAPEAAGAPSVFLFPPKPKDTLMISRTPEVTCVVVDVSHEDPEVKFNWYVDGVEVHNAKTKPREEQYNSTYRVVSVLTVLHQDWLNGKEYKCKVSNKALPAPIEKTISKAKGQPREPQVCTLPPSRDELTKNQVSLSCAVKGFYPSDIAVEWESNGQPENNYKTTPPVLDSDGSFFLVSKLTVDKSRWQQGNVFSCSVMHEALHNHYTQKSLSLSPGWSHPQFEK chain 2: not shown
5 | 0.04 | 0.13 | 0.71 | 13 | 246000 | – | – | – | DGL643 (bispecific antibody) chain 1: EVQLLESGGGLVQPGGSLRLSCAASGFTFSNAWMNWVRQAPGKGLEWVSSISSSSSYIYYADSVKGRFTISRDNSKNTLYLQMNSLRAEDTAVYYCARSNGSGGSDYPLDLWGQGTLVTVTSSGGGGSGGGGSGGGGSQSVLTQPPSASGTPGQRVTISCSGSRSNIGSNSVHWYQQLPGTAPKLLIYGNSNRPSGVPDRFSGSKSGTSASLAISGLRSEDEADYYCQSYDSSLNDHVVFGGGTKLTVLDKTHTCPPCPAPEAAGAPSVFLFPPKPKDTLMISRTPEVTCVVVDVSHEDPEVKFNWYVDGVEVHNAKTKPREEQYNSTYRVVSVLTVLHQDWLNGKEYKCKVSNKALPAPIEKTISKAKGQPREPQVCTLPPSRDELTKNQVSLSCAVKGFYPSDIAVEWESNGQPENNYKTTPPVLDSDGSFFLVSKLTVDKSRWQQGNVFSCSVMHEALHNHYTQKSLSLSPGWSHPQFEK chain 2: not shown
6 | 0.06 | 0.15 | 0.8 | 18 | 333000 | – | – | – | DGL646 (bispecific antibody) chain 1: EVQLLESGGGLVQPGGSLRLSCAASGFTFSNAWMNWVRQAPGKGLEWVSSISSSSSYIYYADSVKGRFTISRDNSKNTLYLQMNSLRAEDTAVYYCARAVGASTVYFGLDQWGQGTLVTVTSSGGGGSGGGGSGGGGSQSVLTQPPSASGTPGQRVTISCSGSRSNIGSNSVHWYQQLPGTAPKLLIYGNSNRPSGVPDRFSGSKSGTSASLAISGLRSEDEADYYCQSYDSSLNDHVVFGGGTKLTVLDKTHTCPPCPAPEAAGAPSVFLFPPKPKDTLMISRTPEVTCVVVDVSHEDPEVKFNWYVDGVEVHNAKTKPREEQYNSTYRVVSVLTVLHQDWLNGKEYKCKVSNKALPAPIEKTISKAKGQPREPQVCTLPPSRDELTKNQVSLSCAVKGFYPSDIAVEWESNGQPENNYKTTPPVLDSDGSFFLVSKLTVDKSRWQQGNVFSCSVMHEALHNHYTQKSLSLSPGWSHPQFEK chain 2: not shown
